Experimental data: patent US20030206886A1 (UNIVERSITY OF MEDICINE AND DENTISTRY OF NEW JERSEY, published 2003)

T1: human IL-10 receptor immunoadhesin (isotype not stated, control of FIG. 3 bottom) (human, UniProt Q13651 22-235)
T1 construct: extracellular domain; not shown: human IgG1 or IgA1 hinge-CH2-CH3
T1 sequence (looked up): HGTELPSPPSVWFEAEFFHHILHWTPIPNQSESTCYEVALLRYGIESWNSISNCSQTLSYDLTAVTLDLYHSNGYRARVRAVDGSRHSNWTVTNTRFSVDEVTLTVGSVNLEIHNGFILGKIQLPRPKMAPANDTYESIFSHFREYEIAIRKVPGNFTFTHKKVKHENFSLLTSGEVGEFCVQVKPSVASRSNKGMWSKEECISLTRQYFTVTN

T2: murine IL-10 receptor IgG immunoadhesin (murine, UniProt Q61727 17-241)
T2 construct: Used as specificity control; also called murine IL-10 R immunoadhesin; murine IL-10 receptor immunoadhesin; not shown: IgG backbone
T2 sequence (looked up): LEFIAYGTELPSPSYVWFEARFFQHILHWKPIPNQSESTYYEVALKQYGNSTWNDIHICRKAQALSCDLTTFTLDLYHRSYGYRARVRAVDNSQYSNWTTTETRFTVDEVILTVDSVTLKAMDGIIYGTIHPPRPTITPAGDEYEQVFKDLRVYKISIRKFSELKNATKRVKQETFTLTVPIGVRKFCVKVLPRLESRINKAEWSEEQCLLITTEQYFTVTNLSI

T3: human IL-10 receptor IgG immunoadhesin (human, UniProt Q13651 22-235)
T3 construct: extracellular domain; Tested as concentrated supernatant of cells infected with recombinant vaccinia; also called human IL-10R adhesin; human IL-10 R adhesin; not shown: human IgG1 heavy chain hinge, CH2 and CH3 domains, amplified from ARH-77 cDNA; joined through a SalI site; residue limit
T3 sequence (looked up): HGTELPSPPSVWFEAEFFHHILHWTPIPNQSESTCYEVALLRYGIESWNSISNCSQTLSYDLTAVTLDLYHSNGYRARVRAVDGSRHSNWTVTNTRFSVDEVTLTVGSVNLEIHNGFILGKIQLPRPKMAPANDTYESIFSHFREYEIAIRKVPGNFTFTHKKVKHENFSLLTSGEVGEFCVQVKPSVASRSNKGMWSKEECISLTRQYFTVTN

T4: murine IL-4 receptor IgG immunoadhesin (murine, UniProt P16382 26-233)
T4 construct: Tested as concentrated supernatant of vaccinia-infected cells; also called murine IL-4 receptor immunoadhesin; mIL-4R IgG immunoadhesin; not shown: IgG backbone
T4 sequence (looked up): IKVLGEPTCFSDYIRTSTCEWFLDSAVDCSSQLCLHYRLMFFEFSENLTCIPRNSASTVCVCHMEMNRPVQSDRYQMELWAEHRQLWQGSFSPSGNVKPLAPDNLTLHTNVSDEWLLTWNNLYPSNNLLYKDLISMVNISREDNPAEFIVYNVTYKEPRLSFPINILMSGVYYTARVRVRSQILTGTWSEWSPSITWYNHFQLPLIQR


Tests used:
[1] = biological target: T1, human IL-10 receptor immunoadhesin …; test: ELISA inhibition, FIG. 3 bottom
[2] = biological target: T2, murine IL-10 receptor IgG immunoadhesin; test: bead depletion assay, FIG. 3 top
[3] = biological target: T3, human IL-10 receptor IgG immunoadhesin; test: bead depletion assay, unbound hIL-10 by ELISA, FIG. 1 top
[4] = biological target: T2, murine IL-10 receptor IgG immunoadhesin; test: bead depletion assay (immunoadhesin on beads, unbound hIL-10 in filtrate by ELISA), FIG. 1 top
[5] = biological target: T4, murine IL-4 receptor IgG immunoadhesin; test: as above

| binding result [1] | binding result [3] | Binder | binding result [2] | binding result [4] | binding result [5] |
| --- | --- | --- | --- | --- | --- |
| no binding | – | murine IL-4 (ligand, UniProt P07750 21-140, looked up, also called mIL-4) HIHGCDKNHLREIIGILNEVTGEGTPCTEMDVPNVLTATKNTTESELVCRASKVLRIFYLKHGKTPCLKKNSSVLMELQRLFRAFRCLDSSISCTMNESKSTSLKDFLESLKSIMQMDYS | no binding (tested: 250 µl of 200 pg/100 µl of mIL-4) | – | – |
| – | binds | human IL-10 (ligand, UniProt P22301 19-178, looked up, also called hIL-10) SPGQGTQSENSCTHFPGNLPNMLRDLRDAFSRVKTFFQMKDQLDNLLLKESLLEDFKGYLGCQALSEMIQFYLEEVMPQAENQDPDIKAHVNSLGENLKTLRLRLRRCHRFLPCENKSKAVEQVKNAFNKLQEKGIYKAMSEFDIFINYIEAYMTMKIRN | – | no binding (tested: 250 µl of 200 pg/100 µl of hIL-10) | no binding (tested: 250 µl of 200 pg/100 µl of hIL-10) |
